Read-outs that look alike come from different tables or passages of the source. Where no end group is shown, it is not given here.
T1: Peptide-69 (cysteine pairing not given here; also: biotinylated, site not given here)
T1 construct: mask peptide for the CD3 scFv
T1 peptide: SECLVDLQSDPCYW

T2: Peptide-67 (cysteine pairing not given here; also: biotinylated, site not given here)
T2 construct: mask peptide for the CD3 scFv
T2 peptide: VYCGPEFDESVGCM

T3: Peptide-66 (cysteine pairing not given here; also: biotinylated, site not given here)
T3 construct: mask peptide for the CD3 scFv
T3 peptide: GSQCLGPEWEVCPY

T4: Peptide-71 (cysteine pairing not given here; also: biotinylated, site not given here)
T4 construct: mask peptide for the CD3 scFv
T4 peptide: VDCGPDGDESILCY

T5: Peptide-75 (cysteine pairing not given here; also: biotinylated, site not given here)
T5 construct: mask peptide for the CD3 scFv
T5 peptide: GSACLGPEWEVCPY

T6: Peptide-74 (cysteine pairing not given here; also: biotinylated, site not given here)
T6 construct: mask peptide for the CD3 scFv
T6 peptide: ASQCLGPEWEVCPY

T7: Peptide-68 (cysteine pairing not given here; also: biotinylated, site not given here)
T7 construct: mask peptide for the CD3 scFv
T7 peptide: DWCWYSPDNDGLCD

T8: Peptide-72 (cysteine pairing not given here; also: biotinylated, site not given here)
T8 construct: mask peptide for the CD3 scFv
T8 peptide: AYCGPEFDESVGCM

T9: Peptide-70 (cysteine pairing not given here; also: biotinylated, site not given here)
T9 construct: mask peptide for the CD3 scFv
T9 peptide: YLCGPDGDETLACY

T10: Peptide-77 (cysteine pairing not given here; also: biotinylated, site not given here)
T10 construct: mask peptide for the CD3 scFv
T10 peptide: YLCGPDTDETLACY

T11: Peptide-76 (cysteine pairing not given here; also: biotinylated, site not given here)
T11 construct: mask peptide for the CD3 scFv
T11 peptide: YLCGPDADETLACY

B1: Peptide-73 (peptide)
peptide: VYCGPEFDESVGCA
modifications: cysteine pairing not given here; also: biotinylated, site not given here
notes: mask peptide for the CD3 scFv
B2: TCE-20 (anti-CD3 scFv S110A; anti-TROP2 wt) (bispecific antibody)
light: DIQLTQSPSSLSASVGDRVSITCKASQDVSIAVAWYQQKPGKAPKLLIYSASYRYTGVPDRFSGSGSGTDFTLTISSLQPEDFAVYYCQQHYITPLTFGAGTKVEIKRTVAAPSVFIFPPSDEQLKSGTASVVCLLNNFYPREAKVQWKVDNALQSGNSQESVTEQDSKDSTYSLSSTLTLSKADYEKHKVYACEVTHQGLSSPVTKSFNRGEC
heavy: not shown
notes: scFv on the Fab heavy chain; also called TCE-20 (S110A)
B3: TCE-38 (anti-CD3 scFv F240A; anti-TROP2 F108A) (bispecific antibody)
light: B2 light
heavy: not shown
notes: scFv on the Fab heavy chain

What was measured:
[1] = biological target: T12, TCE-39 (anti-CD3 scFv P41S, A49G, N87S, L150F, T151S, G163R, P175A, K181T, T200V, A202D, L208I, G211N, L217I, …); assay: competition ELISA, TCE on captured CD3
T12 construct: scFv on the Fab heavy chain

[2] = biological target: T13, TCE-36 (anti-CD3 scFv H101A; anti-TROP2 F108A); assay: competition ELISA, TCE on captured CD3
T13 construct: scFv on the Fab heavy chain

[3] = biological target: B3; assay: competition ELISA, TCE on captured CD3
[4] = biological target: T14, TCE-37 (anti-CD3 scFv F104A; anti-TROP2 F108A); assay: competition ELISA, TCE on captured CD3
T14 construct: scFv on the Fab heavy chain

[5] = biological target: T15, TCE-7 (anti-CD3 scFv wt; anti-TROP2 F108A); assay: competition ELISA, TCE on captured CD3
T15 construct: scFv on the Fab heavy chain

[6] = biological target: T16, TCE-10 (anti-CD3 scFv R100A; anti-TROP2 wt); assay: competition ELISA (IC50 above limit); Table 42 Peptide-73 series (FIGS. 103A-103C), limit >3 µM
T16 construct: scFv on the Fab heavy chain; also called TCE-10 (R100A)

[7] = biological target: B2; assay: as above
[8] = biological target: T17, TCE-22 (anti-CD3 scFv W112A; anti-TROP2 wt); assay: competition ELISA, TCE on captured CD3; Table 41 run, peptide series with ceiling >100 µM
T17 construct: scFv on the Fab heavy chain; also called TCE-22 (W112A)

[9] = biological target: T18, TCE-31 (anti-CD3 scFv W238A; anti-TROP2 wt); assay: as above
T18 construct: scFv on the Fab heavy chain; also called TCE-31 (W238A)

[10] = biological target: T16, TCE-10 (anti-CD3 scFv R100A; anti-TROP2 …); assay: competition ELISA, TCE on captured CD3; Table 40 peptide panel (FIGS. 91-102), limit >100 µM
[11] = biological target: B2; assay: as above
[12] = biological target: T16, TCE-10 (anti-CD3 scFv R100A; anti-TROP2 …); assay: competition ELISA, TCE on captured CD3
[13] = biological target: T19, TCE-19 (anti-CD3 scFv I109A; anti-TROP2 wt); assay: competition ELISA, TCE on captured CD3
T19 construct: scFv on the Fab heavy chain

[14] = biological target: T20, TCE-24 (anti-CD3 scFv V231A; anti-TROP2 wt); assay: competition ELISA, TCE on captured CD3
T20 construct: scFv on the Fab heavy chain

[15] = biological target: T21, TCE-28 (anti-CD3 scFv S235A; anti-TROP2 wt); assay: competition ELISA, TCE on captured CD3
T21 construct: scFv on the Fab heavy chain

[16] = biological target: T22, TCE-16 (anti-CD3 scFv N106A; anti-TROP2 wt); assay: competition ELISA, TCE on captured CD3
T22 construct: scFv on the Fab heavy chain

[17] = biological target: T23, TCE-33 (anti-CD3 scFv F240A; anti-TROP2 wt); assay: competition ELISA, TCE on captured CD3
T23 construct: scFv on the Fab heavy chain; also called TCE-33 (F240A)

[18] = biological target: B2; assay: competition ELISA, TCE on captured CD3
[19] = biological target: T24, TCE-27 (anti-CD3 scFv Y234A; anti-TROP2 wt); assay: competition ELISA, TCE on captured CD3
T24 construct: scFv on the Fab heavy chain

[20] = biological target: T25, TCE-15 (anti-CD3 scFv G105A; anti-TROP2 wt); assay: competition ELISA, TCE on captured CD3
T25 construct: scFv on the Fab heavy chain

[21] = biological target: T26, TCE-9 (anti-CD3 scFv V99A; anti-TROP2 wt); assay: competition ELISA, TCE on captured CD3
T26 construct: scFv on the Fab heavy chain

[22] = biological target: T27, TCE-30 (anti-CD3 scFv R237A; anti-TROP2 wt); assay: competition ELISA, TCE on captured CD3
T27 construct: scFv on the Fab heavy chain

[23] = biological target: T28, TCE-17 (anti-CD3 scFv S107A; anti-TROP2 wt); assay: competition ELISA, TCE on captured CD3
T28 construct: scFv on the Fab heavy chain

[24] = biological target: T29, TCE-11 (anti-CD3 scFv H101A; anti-TROP2 wt); assay: competition ELISA, TCE on captured CD3
T29 construct: scFv on the Fab heavy chain; also called TCE-11 (H101A)

[25] = biological target: T30, TCE-32 (anti-CD3 scFv V239A; anti-TROP2 wt); assay: competition ELISA, TCE on captured CD3
T30 construct: scFv on the Fab heavy chain

[26] = biological target: T31, TCE-13 (anti-CD3 scFv N103A; anti-TROP2 wt); assay: competition ELISA, TCE on captured CD3
T31 construct: scFv on the Fab heavy chain; also called TCE-13 (N103A)

[27] = biological target: T32, TCE-29 (anti-CD3 scFv N236A; anti-TROP2 wt); assay: competition ELISA, TCE on captured CD3
T32 construct: scFv on the Fab heavy chain

[28] = biological target: T33, TCE-25 (anti-CD3 scFv L232A; anti-TROP2 wt); assay: competition ELISA, TCE on captured CD3
T33 construct: scFv on the Fab heavy chain

[29] = biological target: T34, TCE-18 (anti-CD3 scFv Y108A; anti-TROP2 wt); assay: competition ELISA, TCE on captured CD3
T34 construct: scFv on the Fab heavy chain

[30] = biological target: T35, TCE-14 (anti-CD3 scFv F104A; anti-TROP2 wt); assay: competition ELISA, TCE on captured CD3
T35 construct: scFv on the Fab heavy chain; also called TCE-14 (F104A)

[31] = biological target: T36, TCE-1 (anti-CD3 scFv wt; anti-TROP2 Fab wt); assay: competition ELISA, TCE on captured CD3
T36 construct: anti-CD3 scFv fused to the N-terminus of the anti-TROP2 Fab heavy chain; also called TCE-1 (wt)

[32] = biological target: T37, TCE-12 (anti-CD3 scFv G102A; anti-TROP2 wt); assay: competition ELISA, TCE on captured CD3
T37 construct: scFv on the Fab heavy chain

[33] = biological target: T23, TCE-33 (anti-CD3 scFv F240A; anti-TROP2 …); assay: competition ELISA, TCE on captured CD3; remark: listed apart in the source
[34] = biological target: T29, TCE-11 (anti-CD3 scFv H101A; anti-TROP2 …); assay: competition ELISA, TCE on captured CD3; remark: listed apart in the source
[35] = biological target: T31, TCE-13 (anti-CD3 scFv N103A; anti-TROP2 …); assay: competition ELISA, TCE on captured CD3; remark: listed apart in the source
[36] = biological target: T35, TCE-14 (anti-CD3 scFv F104A; anti-TROP2 …); assay: competition ELISA, TCE on captured CD3; remark: listed apart in the source
Peptide-69 = biological target: T1, Peptide-69; assay: ELISA, TCE on captured biotin-peptide
Peptide-67 = biological target: T2, Peptide-67; assay: ELISA, TCE on captured biotin-peptide
Peptide-66 = biological target: T3, Peptide-66; assay: ELISA, TCE on captured biotin-peptide
Peptide-71 = biological target: T4, Peptide-71; assay: ELISA, TCE on captured biotin-peptide
Peptide-75 = biological target: T5, Peptide-75; assay: ELISA, TCE on captured biotin-peptide
Peptide-74 = biological target: T6, Peptide-74; assay: ELISA, TCE on captured biotin-peptide
Peptide-68 = biological target: T7, Peptide-68; assay: ELISA, TCE on captured biotin-peptide
Peptide-72 = biological target: T8, Peptide-72; assay: ELISA, TCE on captured biotin-peptide
Peptide-73 [37] = biological target: B1; assay: ELISA, TCE on captured biotin-peptide
Peptide-70 = biological target: T9, Peptide-70; assay: ELISA, TCE on captured biotin-peptide
Peptide-77 = biological target: T10, Peptide-77; assay: ELISA, TCE on captured biotin-peptide
Peptide-76 = biological target: T11, Peptide-76; assay: ELISA, TCE on captured biotin-peptide
Peptide-73 [38] = biological target: B1; assay: ELISA, TCE on captured biotin-peptide
[39] = biological target: T38, CD3 (biotinylated CD3 antigen) (human, UniProt P07766 23-126, limits assumed, biotinylated (site not stated)); assay: ELISA, TCE on captured biotin-CD3
T38 construct: also called CD3ε; human CD3

Binder: B1
- IC50 [1]: 0.04 µM
- IC50 [2]: 1.63 µM
- IC50 [3]: 4.62 µM
- IC50 [4]: 0.01 µM
- IC50 [5]: 0.06 µM
- IC50 [6]: 3 µM
- IC50 [7]: 3 µM
- IC50 [8]: 39.1 µM
- IC50 [9]: 25.9 µM
- IC50 [10]: 16.8 µM
- IC50 [11]: 2.2 µM
- IC50 [12]: > 3 µM
- IC50 [13]: 0.42 µM
- IC50 [14]: 0.23 µM
- IC50 [15]: 0.1 µM
- IC50 [16]: 0.05 µM
- IC50 [17]: 1.9 µM
- IC50 [18]: > 3 µM
- IC50 [19]: 0.62 µM
- IC50 [20]: 0.31 µM
- IC50 [21]: 0.16 µM
- IC50 [22]: 0.14 µM
- IC50 [23]: 0.1 µM
- IC50 [24]: 1.22 µM
- IC50 [25]: 0.06 µM
- IC50 [26]: 0.82 µM
- IC50 [27]: 0.23 µM
- IC50 [28]: 0.65 µM
- IC50 [29]: 0.11 µM
- IC50 [30]: 0.07 µM
- IC50 [31]: 0.14 µM
- IC50 [32]: 0.23 µM
- IC50 [33]: 3.02 µM
- IC50 [34]: 2.93 µM
- IC50 [35]: 4.07 µM
- IC50 [36]: 0.2 µM

Binder: B2
- EC50 (Peptide-69): 0.00095 µM
- EC50 (Peptide-67): 0.00066 µM
- EC50 (Peptide-66): 0.00365 µM
- EC50 (Peptide-71): 0.00192 µM
- EC50 (Peptide-75): 0.00382 µM
- EC50 (Peptide-74): 0.00346 µM
- EC50 (Peptide-68): 0.00016 µM
- EC50 (Peptide-72): 0.00076 µM
- EC50 (Peptide-73 [37]): 0.00083 µM

Binder: B3
- EC50 (Peptide-70): 0.00062 µM
- EC50 (Peptide-77): 0.336 µM
- EC50 (Peptide-76): 0.222 µM
- EC50 (Peptide-73 [38]): 0.00887 µM
- EC50 [39]: 0.00095 µM

From patent US20230357429A1 (JANUX THERAPEUTICS, published 2023)
